Experimental data reported in PMC7229837, “Molecular architecture of the DNA-binding sites of the P-loop ATPases MipZ and ParA from Caulobacter crescentus”.
Numbering of substitutions follows the chain as printed.

Columns and labels:
Assay in all cases: MST; low-affinity group, KD >> 10 uM; EMSA: 10 mM HEPES/NaOH pH 7.2, 150 mM NaCl, 10 mM MgCl2, 0.05% Tween 20, 0.46 mM ATPgS, room temp; BLI: 50 mM HEPES/NaOH pH 7.2, 50 mM NaCl, 5 mM MgCl2, 0.1 mM
MipZ L237A = molecular target: T1, MipZ L237A (Caulobacter crescentus, UniProt Q9A6C9 1-278, L237A); conditions: protein: recombinant; tags: C-terminal His6 (pET21a); chain copies: 2; label: Cy3 (5') on strand 1; blunt
T1 sequence: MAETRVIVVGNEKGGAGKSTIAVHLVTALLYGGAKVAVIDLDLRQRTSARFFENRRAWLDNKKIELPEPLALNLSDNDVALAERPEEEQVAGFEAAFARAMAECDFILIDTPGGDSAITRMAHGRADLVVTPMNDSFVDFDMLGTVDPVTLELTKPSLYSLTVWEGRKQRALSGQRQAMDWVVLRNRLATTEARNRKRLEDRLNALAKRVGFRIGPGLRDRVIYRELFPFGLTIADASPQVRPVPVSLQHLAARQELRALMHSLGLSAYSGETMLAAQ

MipZ R219A = molecular target: T2, MipZ R219A (Caulobacter crescentus, UniProt Q9A6C9 1-278, R219A); conditions: protein: recombinant; tags: C-terminal His6 (pET21a); chain copies: 2; label: Cy3 (5') on strand 1; blunt
T2 sequence: T1 sequence with R219A, A237L

MipZ K13A = molecular target: T3, MipZ K13A (Caulobacter crescentus, UniProt Q9A6C9 1-278, K13A); conditions: protein: recombinant; tags: C-terminal His6 (pET21a); label: Cy3 (5') on strand 1; blunt
T3 sequence: T1 sequence with K13A, A237L

MipZ R196A = molecular target: T4, MipZ R196A (Caulobacter crescentus, UniProt Q9A6C9 1-278, R196A); conditions: protein: recombinant; tags: C-terminal His6 (pET21a); chain copies: 2; label: Cy3 (5') on strand 1; blunt
T4 sequence: T1 sequence with R196A, A237L

MipZ K197A = molecular target: T5, MipZ K197A (Caulobacter crescentus, UniProt Q9A6C9 1-278, K197A); conditions: protein: recombinant; tags: C-terminal His6 (pET21a); chain copies: 2; label: Cy3 (5') on strand 1; blunt
T5 sequence: T1 sequence with K197A, A237L

MipZ R242A = molecular target: T6, MipZ R242A (Caulobacter crescentus, UniProt Q9A6C9 1-278, R242A); conditions: protein: recombinant; tags: C-terminal His6 (pET21a); chain copies: 2; label: Cy3 (5') on strand 1; blunt
T6 sequence: T1 sequence with A237L, R242A

Measured: Kd

B1: rand-Cy3/rand-rev 26 bp (dsDNA)
DNA 1: GAGGCAGACTAGATCTTCTAGTTCGG
DNA 2: CCGAACTAGAAGATCTAGTCTGCCTC
> 10 µM: all assays above
